Test results published in patent publication US20250101074A1 (Affibody, published 2025).

Columns and labels:
Test in all cases: SPR (Biacore), PEP07843 immobilized, analyte protein injected
[1] = biological target: T1, Haptoglobin Human (seems to be beta chain) (human, UniProt P00738 162-406, limits assumed)
T1 sequence (looked up): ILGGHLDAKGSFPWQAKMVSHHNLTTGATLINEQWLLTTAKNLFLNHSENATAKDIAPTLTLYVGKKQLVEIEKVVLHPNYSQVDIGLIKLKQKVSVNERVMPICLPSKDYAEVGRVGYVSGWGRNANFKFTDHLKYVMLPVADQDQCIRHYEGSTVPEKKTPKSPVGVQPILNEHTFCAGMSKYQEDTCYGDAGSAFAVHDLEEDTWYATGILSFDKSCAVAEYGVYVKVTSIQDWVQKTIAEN
Procedure: (§1) In the binding experiment, HBS-EP was used as running buffer and the flow rate was 30 μl/min. […] The analytes, i.e. the panels of 24 or 12 different proteins, were each diluted in HBS-EP or HBS-EP supplemented with 500 mM NaCl to final concentrations of from 0.4 to 250 nM and injected for 5 min. […] The results were analyzed using the BiaEvaluation software.
(§2) The Z-ABD-Z polypeptides were injected over surfaces containing HSA followed by injection of the analyte proteins.

Human a-2 macroglobulin = biological target: T2, Human a-2 macroglobulin (human, UniProt P01023 24-1474)
T2 sequence (looked up): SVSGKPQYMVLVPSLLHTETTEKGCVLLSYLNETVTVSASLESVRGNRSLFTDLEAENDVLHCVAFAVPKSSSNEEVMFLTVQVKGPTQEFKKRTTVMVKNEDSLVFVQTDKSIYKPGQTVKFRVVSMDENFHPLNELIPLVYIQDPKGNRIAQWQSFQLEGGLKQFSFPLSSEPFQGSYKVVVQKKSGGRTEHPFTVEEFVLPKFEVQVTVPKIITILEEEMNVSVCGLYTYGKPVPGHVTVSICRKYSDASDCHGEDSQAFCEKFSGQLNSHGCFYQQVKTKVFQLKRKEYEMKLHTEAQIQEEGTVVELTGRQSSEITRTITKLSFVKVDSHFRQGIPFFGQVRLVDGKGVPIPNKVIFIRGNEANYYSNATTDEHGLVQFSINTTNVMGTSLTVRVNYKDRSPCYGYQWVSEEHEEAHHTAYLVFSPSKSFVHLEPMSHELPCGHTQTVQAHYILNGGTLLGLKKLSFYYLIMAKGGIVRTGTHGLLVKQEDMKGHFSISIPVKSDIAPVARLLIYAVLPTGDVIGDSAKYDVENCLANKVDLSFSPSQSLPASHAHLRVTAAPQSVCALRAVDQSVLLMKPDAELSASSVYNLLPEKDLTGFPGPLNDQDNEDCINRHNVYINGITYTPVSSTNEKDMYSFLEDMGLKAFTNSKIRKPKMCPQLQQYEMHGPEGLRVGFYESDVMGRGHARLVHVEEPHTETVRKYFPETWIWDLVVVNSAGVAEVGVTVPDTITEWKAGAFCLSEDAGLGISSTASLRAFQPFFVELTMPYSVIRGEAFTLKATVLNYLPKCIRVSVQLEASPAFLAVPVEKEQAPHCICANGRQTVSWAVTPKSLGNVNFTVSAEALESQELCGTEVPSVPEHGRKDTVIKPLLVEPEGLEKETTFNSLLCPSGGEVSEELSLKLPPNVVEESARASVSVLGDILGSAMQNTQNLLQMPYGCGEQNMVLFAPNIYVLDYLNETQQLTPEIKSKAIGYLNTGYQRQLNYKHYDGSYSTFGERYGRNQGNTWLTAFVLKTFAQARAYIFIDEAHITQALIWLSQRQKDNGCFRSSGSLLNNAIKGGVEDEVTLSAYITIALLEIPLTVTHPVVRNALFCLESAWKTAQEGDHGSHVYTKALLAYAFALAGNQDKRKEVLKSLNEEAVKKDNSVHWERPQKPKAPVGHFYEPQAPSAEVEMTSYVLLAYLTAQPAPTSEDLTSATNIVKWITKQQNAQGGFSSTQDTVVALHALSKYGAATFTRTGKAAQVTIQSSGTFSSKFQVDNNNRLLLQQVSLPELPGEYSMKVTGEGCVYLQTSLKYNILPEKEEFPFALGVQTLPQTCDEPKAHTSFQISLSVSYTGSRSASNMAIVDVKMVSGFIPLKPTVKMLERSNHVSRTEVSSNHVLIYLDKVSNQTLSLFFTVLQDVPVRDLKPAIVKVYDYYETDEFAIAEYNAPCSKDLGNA
Procedure: as §1, §2

hGM-CSF = hGM-CSF (human, UniProt P04141 18-144)
Procedure: as §1, §2

IL-1R1 = biological target: T3, IL-1R1 (UniProt P14778 18-332, limits assumed)
T3 sequence (looked up): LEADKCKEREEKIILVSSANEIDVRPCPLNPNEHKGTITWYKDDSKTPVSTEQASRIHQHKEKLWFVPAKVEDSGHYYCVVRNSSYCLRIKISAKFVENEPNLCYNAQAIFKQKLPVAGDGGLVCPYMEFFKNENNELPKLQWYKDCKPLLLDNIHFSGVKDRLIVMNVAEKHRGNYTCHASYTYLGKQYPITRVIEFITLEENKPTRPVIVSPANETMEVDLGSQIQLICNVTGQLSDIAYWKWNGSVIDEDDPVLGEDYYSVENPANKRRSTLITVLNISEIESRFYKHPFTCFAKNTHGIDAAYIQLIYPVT
Procedure: as §1, §2

[2] = biological target: T4, AMBP/Alpha1 microglobulin (UniProt P02760 20-203, limits assumed)
T4 sequence (looked up): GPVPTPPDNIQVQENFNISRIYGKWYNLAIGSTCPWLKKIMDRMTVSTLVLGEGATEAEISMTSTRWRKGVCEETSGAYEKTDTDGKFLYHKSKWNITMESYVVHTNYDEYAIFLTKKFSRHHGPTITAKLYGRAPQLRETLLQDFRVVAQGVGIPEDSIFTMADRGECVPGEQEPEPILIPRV
Procedure: as §1, §2

hIL-6 = hIL-6 (human, UniProt P05231 29-212)
Procedure: as §1, §2

hIL-17C = biological target: T5, hIL-17C (human, UniProt Q9P0M4 19-197)
T5 sequence (looked up): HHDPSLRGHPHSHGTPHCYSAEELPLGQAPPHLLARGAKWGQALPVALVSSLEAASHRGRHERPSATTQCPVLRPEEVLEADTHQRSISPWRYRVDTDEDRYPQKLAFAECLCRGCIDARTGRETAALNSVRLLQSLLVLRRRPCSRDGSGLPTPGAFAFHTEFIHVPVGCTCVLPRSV
Procedure: as §1, §2

Measured: binding result

Sequence of hGM-CSF (P04141 18-144 limits assumed): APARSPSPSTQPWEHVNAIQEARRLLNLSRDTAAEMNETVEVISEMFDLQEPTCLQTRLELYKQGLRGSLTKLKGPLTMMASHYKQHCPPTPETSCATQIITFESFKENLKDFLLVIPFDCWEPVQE

GSSLAEAKEAANAELDSYGVSDFYKRLIDKAKTVEGVEALKDAILAALP (designed binder) [ABD variant PEP07843]
no binding (tested: 50, 250 nM): all assays above
